In the nanobody polyreactivity screen of Harvey et al. (2022):

Assay: yeast display, Sf9 membrane polyspecificity reagent, FACS + sequencing; frameworks hold sequencing errors
Method in brief: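 A synthetic nanobody library was expressed on Saccharomyces cerevisiae BJ5465 by galactose induction for 36–48 hours. The library was stained for 1 hour at 4 °C with 10% biotinylated, detergent-solubilized Sf9 membrane reagent and enriched with streptavidin microbeads before FACS. Low and high (top ~1%) gates were set on anti-HA fluorescence for expression and streptavidin fluorescence for reagent binding, and each polyreactivity label reflects the gate of origin.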

Row | Sequence | polyreactivity (PSR sort gate)
1 | QVQLVESGGGLVQAGGSLRLSCAASGRTFTRYAMGWYRQAPGKERELVAAISRSGGSTHYADSVKGRFTISRDNAKNTVYLQMNSLKPEDTAVYFCNTVGYRGRSNSRFYYWGQGTQVTVSS | high polyreactivity
2 | QVQLVESGGGLVQAGGSLRLSCAASGRTFTRYARGWYRQAPGKERELVAVISWSVGSTYYADSVKGRFTISRDNAKNTVYLQMNSLKPEDTAVYYCNSDVLSWSQEYDYWGQGTQVTVSS | low polyreactivity
3 | QVQLVESGGGLVQAGGSLRLSCAASGRTFTRYVMGWYRQAPGKESELVAVISSGGRTYYADSVKGRFTISRDNAKNTVYLQMNSLKPEDTAVYYCAAVTHPAWAVEYDYWGQGTQVTVSS | high polyreactivity
4 | QVQLVESGGGLVQAGGSLRLSCAASGRTFTSNAMGWSRQAPGKERELVAAIDDGGSTNYADSVKGRFTISRDNAKNTVYLQMNSLKPEDTAVYYCNAPITWQYRGFRRRFDYWGQGTQVTVSS | low polyreactivity
5 | QVQLVESGGGLVQAGGSLRLSCAASGRTFTSYAMGWYRQAPGKESELVAAIRRSGGSTYADSVKGRFTISRDNAKNTVYLQMNSLKPEDTAVYYCAAGHYWFTKGYHTLYDMDYWGQGTQVTVSS | high polyreactivity
6 | QVQLVESGGGLVQAGGSLRLSCAASGRTFTTIAMGWYRQAPGKERELVSAINSGGSTNYADSVKGRFTISRDNAKNTVYLQMNSLKPEDTAVYYCAKRQRDYSSVFDVDYWGQGTQVTVSS | low polyreactivity
7 | QVQLVESGGGLVQAGGSLRLSCAASGRTFTTYAMGWYRQAPGKERELVAAISDTGGITYYADSVKGRFTISRDNAKNTVYLQMNSLKPEDTAVYYCNAESYRAPYDYWGQCTQVTVSS | low polyreactivity
8 | QVQLVESGGGLVQAGGSLRLSCAASGRTFTVYAMGWNRQAPGKEREFVATSSWSGGRTYYADSVKGRFTISRDNAKYTVYLQMNSLKPEDTAVYYCAAQEYTTRFYFNRDYWGQGTQVTVSS | low polyreactivity
9 | QVQLVESGGGLVQAGGSLRLSCAASGRTFTWYAMGWYRQAPGKERELVAVISRGGSTNYADSVKGRFTISRDNAKNTVYLQMKSLKPEDTAVYYCAARGLYRARLKLDYWGQGTQVTVSS | high polyreactivity
10 | QVQLVESGGGLVQAGGSLRLSCAASGRTFTYNTMGWYRQAPGKERELVAAISSSGGSTYYADSVKGRFTISRDNAKNSVYLQMNSLKPEDTAVYYCAKRYFSSSRYYYWGQGTQVTVSS | high polyreactivity
11 | QVQLVESGGGLVQAGGSLRLSCAASGRTFTYYAMGWYIHAPGKERELVAAITWSGGSTYYADSVKGRFTISRDNAKNSVYLHMNSLKPEDTAVYYCNKTYRQGWSWVSYRSYGSGEGYWGQGTQVTVSS | high polyreactivity
12 | QVQLVESGGGLVQAGGSLRLSCAASGRTFTYYAMGWYRQAPGKERELVAAIRYTGGSTHYADSVKGRFTISRDNAKNTVYLQIHSLKPEDTAVYYCGARRAYTRGGTVYFGYYYWGQGTQVTVSS | high polyreactivity
13 | QVQLVESGGGLVQAGGSLRLSCAASGRTFTYYTMGWYRQAPGKERELVAAITWSGGRTYYADSVKGRFTISRDNAKYTVYLQMNSLKPEDTAVYYCAKPPQGTYDYWGQGTQVTVSS | low polyreactivity
14 | QVQLVESGGGLVQAGGSLRLSCAASGRTFVANVKGWYRQAPGKERELVAGISTRGGRTYYADSVKGRFTISRDNAKNTVYLQMNSLKPEDTAVYYCAVRHYRDSTPRGAYQRYDYWGQGTQVTVSS | low polyreactivity
15 | QVQLVESGGGLVQAGGSLRLSCAASGRTFVCNAMGWYRQAPGKERELVAAISSSGTATYYADSVKGRFTISRDNAKNTVYLQMNSLKPEDTAVYYCAKDLLYQPTIRDYWGQGTQVTVSS | low polyreactivity
16 | QVQLVESGGGLVQAGGSLRLSCAASGRTFVGNAMGWYRQAPGKERELVADITWSGDITYYADSVKGRFTISRDNAKNTVYLQMHSLKPEDTAVYYCAADYHRRRTDYDYWGQGTQVTVSS | low polyreactivity
17 | QVQLVESGGGLVQAGGSLRLSCAASGRTFVGNAMGWYRQAPGKERELVATITRRGGSTYYADSVKGRFTISRDNAKNTVYLQMNSLKPEDTAVYYCAAGSQPGRKYYYWGQGTQVTVSS | high polyreactivity
18 | QVQLVESGGGLVQAGGSLRLSCAASGRTFVGNAMGWYRQAPGKERELVAVITGSGARTYYADSVKGRFTISRDNAKNTVYLQMNSLKPEDTAVYYCAAAGYSGQYRSYYWGQGTQVTVSS | high polyreactivity
19 | QVQLVESGGGLVQAGGSLRLSCAASGRTFVGYAMGWYRQAPGKERELVAAIRNGGGTYYADSVKGRFTISRDNAKNTVYLQMNSLKPEDTAVYYCAARLPRSLKVGYYWGQGTQVTVSS | high polyreactivity
20 | QVQLVESGGGLVQAGGSLRLSCAASGRTFVGYAMGWYRQAPGKERELVAAISTSGGRTYYADSVKGRFTISRDNEKYTVYLQMNSLKPEDTAVYYCAAGFRASIGYVTEYYWGQGTQVTVTS | high polyreactivity
21 | QVQLVESGGGLVQAGGSLRLSCAASGRTFVGYAMGWYRQPPGKERELVAAISGSGVRTYYADSVKGRFTISRDNAKNTGYLQMNSLKPEDTAVYYCADRRYRRWYDYWGQGTQVTVSS | high polyreactivity
22 | QVQLVESGGGLVQAGGSLRLSCAASGRTFVGYVMGWYRQAPGKERELVASITYTGTSTYYADSVKGRFTISRDNAKNTVYLQMNSLKPEDTAVYYCAAQYYLYRRGYIWKYDYWGQGTQVTVSS | high polyreactivity

Row | Sequence | polyreactivity (PSR sort gate)
23 | QVQLVESGGGLVQAGGSLRLSCAASGRTFVHYTMGWYRQAPGKERELVAAISGTGTSTYYADSVKGRFTISRDNAKNTVYLQMNSLKPEDTAVYDCARDPYFGFLIGYPRRDYWGQGTQVTVSS | low polyreactivity
24 | QVQLVESGGGLVQAGGSLRLSCAASGRTFVHYTMGWYRQAPGKERELVATISTSGGSTSYADSVKGRFTISRDNAKNTVYVQMNSLKPEDTAVYYCAARWYFPDRVKYVYWGQGTQVTVSS | low polyreactivity
25 | QVQLVESGGGLVQAGGSLRLSCAASGRTFVNYAMGWYRQAPGKERELVAAISGGGGTNYADSVKGRFTISRDNAKNTVYLHMNSLKPQDTAVYYCAADTNGYEFDYWGQGTLVTVSS | low polyreactivity
26 | QVQLVESGGGLVQAGGSLRLSCAASGRTFVNYAMGWYRQAPWKERELVAAITWSSGRTYYADSVKGRFTISRDNAKNTVYLQMNSLKPEDTAVYYCAAVGRYSGYDYWGQGTQVTVSS | high polyreactivity
27 | QVQLVESGGGLVQAGGSLRLSCAASGRTFVNYAMGWYSQAPGKERELVAAISWTDDDTYYADSVKGRFTISRDNAKNTVYLQMNSLKPEDTAVYYCATDYDSYDYWGQGTQVTVSS | low polyreactivity
28 | QVQLVESGGGLVQAGGSLRLSCAASGRTFVNYTMGWYRQAPGKEWELVAAIRYRDGSTYYADSVKGRFTISRDYAKNTVYLQMNSLKPEDTAVYYCNTRITQVGDYIYDYWGQGTQVTVSS | low polyreactivity
29 | QVQLVESGGGLVQAGGSLRLSCAASGRTFVPDVMGWYRQAPGKERELVAAITSGGSTYYADSVKGRFTISRDNAKNTVYLQMNSLKPEDTAVYYCAKRTSWKYGYWGQGTQVTVSS | high polyreactivity
30 | QVQLVESGGGLVQAGGSLRLSCAASGRTFVPNALGWYRQAPGKERELVAALSWSGDSTYYADSVKGRFTISRDNAKNTVYLQMNSLKPEDTAVYYCAADPFFGVSIGGLKYHFDYWGQGTQVTVSS | low polyreactivity
31 | QVQLVESGGGLVQAGGSLRLSCAASGRTFVPNAMGWYRQAPGKERELVAAISDSGGSTYYADSVKGRFTISRDNAKNTVYLQMNSLKPEDTAVYYCATDVTTYVGWEHGFNYWGQGTQVTVSS | low polyreactivity
32 | QVQLVESGGGLVQAGGSLRLSCAASGRTFVPYAMGWYIQAPGKEREFVAAISSRVGSTYYADSVKGRFTISRDNAKNTVYLQMKSLKPEDTAVYYCNAPFKPAGFYSAWKYDYWGQGTQVSVSS | low polyreactivity
33 | QVQLVESGGGLVQAGGSLRLSCAASGRTFVPYAMGWYRQAHGKERELVAAIDKSDGSTYYADSVKGRFTISRDNAKNTVYLKMNSLKPEDSAVYFCNAEGYTYRYYTIYNYCGQGTQVTVSS | high polyreactivity
34 | QVQLVESGGGLVQAGGSLRLSCAASGRTFVPYAMGWYRQAPGKEREFVAAISSRVGSTYYADSVKGRFTISRDNAKNTVYLQMNSLKQEDTAVYYCNAPFKPAGFYSAWKYDYWGQGTQVTVSS | low polyreactivity
35 | QVQLVESGGGLVQAGGSLRLSCAASGRTFVPYAMGWYRQAPGKERELVAAISSGGDTNYADSVKGRFTISRDNAKNTVYLQMNSLKPEDTAVYYCAVGGAGSDDYLGQGTQVTVSS | low polyreactivity
36 | QVQLVESGGGLVQAGGSLRLSCAASGRTFVPYAMGWYRQAPGKERELVASITRSGGRTYYADSVKGRFTISRDNAKNTVYLQMNSLKPEDTAVYYCAVDWSVYYRTYDYWGQGTQVTVSS | high polyreactivity
37 | QVQLVESGGGLVQAGGSLRLSCAASGRTFVPYAMGWYRQAPGKERELVASITWRGGRTYYADSVKGRFTISRDNAKNTVYLQMNSLKPEDTAVYYCAAVGGYASYFHLYYYWGQGTQVTVSS | high polyreactivity
38 | QVQLVESGGGLVQAGGSLRLSCAASGRTFVQNAMGWYRQAPGKERELVASIRYRDGSTYYADSVKGRFTISRDNAKNTVYLQMNSLKPEDTAVYYCAVRVTSDYYASRYYYWGQGSQVTVSS | high polyreactivity
39 | QVQLVESGGGLVQAGGSLRLSCAASGRTFVRNAMGWYRQAPGKERELVAAISKSGGITYYADSVKGRFTISRDTAKNTVYLQMNSLKPEDTAVYYCAKRTSYYRSGWSHYGYWGQGTQVTVSS | high polyreactivity
40 | QVQLVESGGGLVQAGGSLRLSCAASGRTFVRNAMGWYRQAPGKVRELVAAISSIGDSTYYADSVKGRFTISRDNAKNTVYLQMNSLKPEDTAVYYSNARGYVYYRMGYWGQGTQETVSS | low polyreactivity
41 | QVQLVESGGGLVQAGGSLRLSCAASGRTFVRNTMGWYRQAPGKERELVAAISGGGSTYYADSVKGRFTISSDNAKKTVYLQMNSLKPEDTAVYYCAATTRRQGGKRFDYWGQGTQVTVSS | high polyreactivity
42 | QVQLVESGGGLVQAGGSLRLSCAASGRTFVRYAMGWYRQAPGKERELVAAISWSGGSTYYADSVKGRFTISRDNAKNTVYLQMNSLKPEDTAVYYCATLSAWKASSYDYWGQGTQVTVSS | high polyreactivity
43 | QVQLVESGGGLVQAGGSLRLSCAASGRTFVRYAMGWYRQAPGQERELVARITSRGTSTYYADSVKGRFTISRDNAKNTVYLQKNSLKPEDTAVYYCNKVRTFRDKSRYDYWGQGTQVTVSS | low polyreactivity
